Experimental data from the supplement of paper PMC9876800.

Tested on: peptide library, one residue held at a place counted from the S/T acceptor
Experiment: relative phosphorylation of the sub-library (ratio to the mean residue at this position); higher = residue favoured
Conditions: human
Procedure, shortened: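 Purified recombinant kinases, either human or orthologue constructs, were incubated in 384-well plates with biotinylated degenerate peptide sub-libraries. Each sub-library fixed one residue at one position around a central Ser/Thr. Peptides at 50 μM and 50 μM ATP spiked with γ-32P-ATP were used for 90 min under kinase-specific conditions, and spots on streptavidin membranes were phosphorimaged and quantified by densitometry. Relative sub-library phosphorylation is expressed as a ratio to the mean residue at that position.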

Chain of SIK2, construct: Full length (Q9H0K1 whole entry, looked up): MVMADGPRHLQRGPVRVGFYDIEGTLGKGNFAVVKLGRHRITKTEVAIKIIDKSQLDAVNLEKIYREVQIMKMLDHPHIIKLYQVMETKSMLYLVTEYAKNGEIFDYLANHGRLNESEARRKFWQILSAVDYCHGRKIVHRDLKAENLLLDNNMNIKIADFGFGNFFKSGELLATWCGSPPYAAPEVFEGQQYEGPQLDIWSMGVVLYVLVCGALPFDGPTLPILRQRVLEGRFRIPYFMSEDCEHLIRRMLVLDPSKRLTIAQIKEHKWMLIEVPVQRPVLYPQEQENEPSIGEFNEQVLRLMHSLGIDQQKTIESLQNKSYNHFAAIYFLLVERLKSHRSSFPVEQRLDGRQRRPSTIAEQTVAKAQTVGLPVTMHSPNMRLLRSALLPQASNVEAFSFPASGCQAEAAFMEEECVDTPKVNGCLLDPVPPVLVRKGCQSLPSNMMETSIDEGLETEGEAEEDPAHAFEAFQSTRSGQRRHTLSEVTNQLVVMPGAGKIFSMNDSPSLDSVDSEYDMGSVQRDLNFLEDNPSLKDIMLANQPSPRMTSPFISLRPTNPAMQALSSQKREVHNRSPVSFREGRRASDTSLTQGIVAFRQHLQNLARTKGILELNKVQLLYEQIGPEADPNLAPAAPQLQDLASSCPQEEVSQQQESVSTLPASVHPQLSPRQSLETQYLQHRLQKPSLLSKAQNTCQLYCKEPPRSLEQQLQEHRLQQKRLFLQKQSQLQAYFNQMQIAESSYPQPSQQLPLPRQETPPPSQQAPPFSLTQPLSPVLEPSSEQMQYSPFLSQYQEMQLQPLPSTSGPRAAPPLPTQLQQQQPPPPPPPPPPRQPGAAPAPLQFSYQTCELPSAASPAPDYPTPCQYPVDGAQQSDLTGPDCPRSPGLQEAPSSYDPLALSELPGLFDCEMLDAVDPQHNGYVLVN

SIK2, construct: Full length (from UniProt Q9H0K1)
relative phosphorylation
Conditions | at +1 | at +2 | at +3 | at +4 | at -1 | at -2 | at -3 | at -4 | at -5
A fixed | 0.683 | 0.923 | 0.762 | 0.745 | 0.883 | 1.45 | 0.789 | 0.944 | 0.972
D fixed | 0.42 | 0.461 | 1.59 | 0.353 | 0.463 | 0.232 | 0.255 | 0.57 | 0.48
E fixed | 0.487 | 0.486 | 0.54 | 0.309 | 0.388 | 0.208 | 0.327 | 0.599 | 0.463
F fixed | 1.13 | 0.924 | 1.51 | 0.96 | 0.685 | 1.5 | 0.969 | 0.98 | 1.2
G fixed | 0.622 | 0.518 | 0.556 | 0.631 | 2.45 | 0.96 | 0.658 | 0.991 | 0.89
H fixed | 1.06 | 1.1 | 1.23 | 0.79 | 1.03 | 1.37 | 1.14 | 1.02 | 0.858
I fixed | 1.05 | 0.988 | 0.821 | 2.46 | 0.591 | 0.561 | 0.627 | 0.762 | 1.09
K fixed | 1.18 | 1.19 | 0.856 | 1.11 | 1.65 | 1.26 | 2.14 | 1.56 | 1.5
L fixed | 1.17 | 1.15 | 0.988 | 2.94 | 0.929 | 0.52 | 0.752 | 0.828 | 1.76
M fixed | 1.68 | 0.94 | 0.916 | 1.4 | 1.03 | 0.664 | 0.765 | 1.02 | 1.17
N fixed | 1.03 | 1.03 | 2.08 | 0.635 | 1 | 0.583 | 0.526 | 0.828 | 0.757
P fixed | 0.336 | 0.68 | 0.33 | 0.578 | 0.923 | 0.394 | 0.788 | 0.729 | 0.767
Q fixed | 1.61 | 0.991 | 0.856 | 0.602 | 1.05 | 0.607 | 0.634 | 0.88 | 0.704
R fixed | 1.48 | 1.7 | 1.03 | 0.83 | 1.77 | 1.4 | 3.76 | 2.09 | 1.41
V fixed | 1 | 0.965 | 0.638 | 1.16 | 0.641 | 0.771 | 0.637 | 0.857 | 0.959
W fixed | 0.951 | 1.74 | 1.19 | 0.809 | 0.605 | 2.67 | 1.37 | 1.29 | 1.04
Y fixed | 1.11 | 1.21 | 1.12 | 0.688 | 0.918 | 1.85 | 0.864 | 1.06 | 0.967
pThr fixed | 0.905 | 0.696 | 0.382 | 0.389 | 0.467 | 0.567 | 0.613 | 0.787 | 0.791
pTyr fixed | 0.499 | 0.38 | 0.573 | 0.35 | 0.746 | 0.54 | 0.614 | 0.526 | 0.71
